From publication PMC10082759, “Shieldin complex assembly kinetics and DNA binding by SHLD3” (Communications Biology, 2022)

Columns and labels:
REV7 (Homo sapiens) = REV7 (Homo sapiens) (UniProt Q9UI95); conditions: cited from earlier work
REV7^WT = target: T1, REV7^WT (human, UniProt Q9UI95 1-211); assay: SPR; SHLD3^1–62 or REV3^1871–2014 immobilised on SCR HC30M chip by EDC-NHS; REV7 injected in two-fold dilutions; buffer B with 0.05% Tween 20; conditions: both partners purified
T1 construct: REV7 (MAD2L2), human; The methods say in general that the MBP or GST tag was cleaved with PreScission protease; here the protein is labelled without a tag; also called MAD2L2; wild-type REV7; source: E. coli LOBSTR, purified (metal chelating column, tag cleavage, SEC); not shown: hexahistidine-MBP or GST, N-terminal, cleaved
T1 sequence (Q9UI95 whole entry): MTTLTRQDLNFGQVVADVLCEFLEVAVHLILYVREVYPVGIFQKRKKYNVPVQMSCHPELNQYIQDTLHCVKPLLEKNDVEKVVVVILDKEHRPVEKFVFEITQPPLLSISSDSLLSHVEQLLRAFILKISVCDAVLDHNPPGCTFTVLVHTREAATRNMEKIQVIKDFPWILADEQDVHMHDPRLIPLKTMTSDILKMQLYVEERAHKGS

REV7^R124A [1] = target: REV7^R124A (human, UniProt Q9UI95 1-211, R124A); assay: SPR
REV7^R124A [2] = target: T2, REV7^R124A (human, UniProt Q9UI95 1-211, R124A); assay: SPR; SHLD3^1–62 or REV3^1871–2014 immobilised on SCR HC30M chip by EDC-NHS; REV7 injected in two-fold dilutions; buffer B with 0.05% Tween 20; conditions: both partners purified
T2 construct: REV7 (MAD2L2), human; also called dimerization mutant; source: E. coli LOBSTR, purified (metal chelating column, tag cleavage, SEC); not shown: hexahistidine-MBP or GST, N-terminal, cleaved
T2 sequence (Q9UI95 whole entry R124A): as the sequence (Q9UI95 whole entry) above, with R124A counted along it

[3] = target: T3, pre-formed GST-SHLD3^1–62-REV7 (human, UniProt Q6ZNX1 1-62; Q9UI95 1-211); assay: pull-down; MBP-SHLD2^1–60 as bait, five-minute incubation at 4 °C with REV7 and GST-SHLD3^1–62 or with pre-formed GST-SHLD3^1–62-REV7 and additional REV7; conditions: both partners purified
T3 construct: SHLD3, human, residues 1-62; as m16; REV7 (MAD2L2), human; as m1; also called GST-SHLD3^1–63-REV7 (methods); pre-formed REV7-SHLD3; source: E. coli LOBSTR, purified components, complex formed beforehand in the absence of SHLD2; not shown: GST, N-terminal, kept; hexahistidine-MBP or GST, N-terminal, cleaved
T3 sequence (Q9UI95 whole entry, the tested form may be a part, one chain of several): as the sequence (Q9UI95 whole entry) above

preformed REV7^ΔN-SHLD3 = target: T4, preformed REV7^ΔN-SHLD3 (human, UniProt Q9UI95 15-211; Q6ZNX1 1-62); assay: SEC; 5 µM preformed REV7^ΔN-SHLD3 with 10 µM MBP-SHLD2^1–60 and MBP-REV7^core, 30 min on ice, Superdex-200 3.2/300 in buffer B; conditions: both partners purified
T4 construct: REV7 (MAD2L2), human, without the N-terminal 14 residues; as m8; SHLD3, human, residues 1-62; as m16; source: E. coli LOBSTR, purified components, complex formed beforehand; not shown: hexahistidine-MBP or GST, N-terminal, cleaved; GST, N-terminal, kept
T4 sequence (Q9UI95 15-211, stated change not applied, one chain of several): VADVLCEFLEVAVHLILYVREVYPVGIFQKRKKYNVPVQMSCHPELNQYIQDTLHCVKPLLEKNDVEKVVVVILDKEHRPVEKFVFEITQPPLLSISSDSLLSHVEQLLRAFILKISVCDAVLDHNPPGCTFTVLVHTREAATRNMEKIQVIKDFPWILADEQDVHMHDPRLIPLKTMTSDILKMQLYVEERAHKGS

[4] = target: T5, SHLD3;SHLD2 1-95;REV7 R124A (human;human;human, UniProt Q6ZNX1;Q86V20-2;Q9UI95 1-250;1-95;1-211, ||R124A); assay: fluorescence anisotropy; 20 mM Na-HEPES pH 7.5, 5% glycerol, 100 mM NaCl, 0.5 mM TCEP; 10 nM DNA, 30 min, room temperature; conditions: protein: recombinant;recombinant;recombinant, tags: tags cleaved (PreScission);GST tag, cleaved (PreScission);tags cleaved (PreScission), copies: 1;1;2
Target sequence in this assay (Q6ZNX1 whole entry, chain 1 of 3): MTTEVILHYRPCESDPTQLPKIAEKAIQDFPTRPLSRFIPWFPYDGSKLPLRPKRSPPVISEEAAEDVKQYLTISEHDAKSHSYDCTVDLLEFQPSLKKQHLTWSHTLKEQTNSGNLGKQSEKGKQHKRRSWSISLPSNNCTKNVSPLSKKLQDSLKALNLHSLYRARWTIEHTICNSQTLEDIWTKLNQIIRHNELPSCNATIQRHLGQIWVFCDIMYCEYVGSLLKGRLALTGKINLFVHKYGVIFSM
Target sequence in this assay (Q86V20 1-95, chain 2 of 3): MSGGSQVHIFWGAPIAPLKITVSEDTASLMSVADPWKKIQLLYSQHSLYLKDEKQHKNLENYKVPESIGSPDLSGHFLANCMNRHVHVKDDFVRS
Target sequence in this assay (Q9UI95 whole entry R124A, chain 3 of 3): as the sequence (Q9UI95 whole entry) above, with R124A counted along it

SHLD3 CTD = target: T6, SHLD3 CTD (human, UniProt Q6ZNX1 140-250); assay: fluorescence anisotropy; Kd similar to the Shieldin complex; 20 mM Na-HEPES pH 7.5, 5% glycerol, 100 mM NaCl, 0.5 mM TCEP; 10 nM DNA, 30 min, room temperature; conditions: protein: recombinant, tags: MBP or GST tag, cleaved (PreScission)
T6 sequence: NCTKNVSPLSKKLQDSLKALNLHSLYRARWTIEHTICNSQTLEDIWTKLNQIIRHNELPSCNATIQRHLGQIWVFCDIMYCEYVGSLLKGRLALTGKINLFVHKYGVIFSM

[5] = target: SHLD3 1-83;SHLD2 1-60;REV7 (human;human;human, UniProt Q6ZNX1;Q86V20-2;Q9UI95 1-83;1-60;1-211, del84-250||); assay: fluorescence anisotropy; 20 mM Na-HEPES pH 7.5, 5% glycerol, 100 mM NaCl, 0.5 mM TCEP; 10 nM DNA, 30 min, room temperature; conditions: protein: recombinant;recombinant;recombinant; tags: ;;; copies: 1;1;2; label: 5(6)-FAM
SHLD3 1-83;SHLD2 1-60;REV7, sequence (Q9UI95 whole entry, stated change not applied, one chain of several): as the sequence (Q9UI95 whole entry) above

[6] = target: T5, SHLD3;SHLD2 1-95;REV7 R124A; assay: analytical size-exclusion chromatography co-migration; excess DNA; 20 mM Na-HEPES pH 7.5, 5% glycerol, 100 mM NaCl, 0.5 mM TCEP; 10 nM DNA, 30 min, room temperature; conditions: protein: recombinant;recombinant;recombinant, tags: tags cleaved (PreScission);GST tag, copies: 1;1;2, label: 5(6)-FAM
Target sequence in this assay (Q9UI95 whole entry R124A, one chain of several): as the sequence (Q9UI95 whole entry) above, with R124A counted along it

[7] = label: 5(6)-FAM on strand 1, blunt

REV7 (from UniProt Q9UI95)
Kd (REV7 (Homo sapiens)): 2000 nM

B1: REV3^1871–2014 (domain or fragment, human, UniProt O60673 1871-2014, looked up)
chain: TPRTANILKPLMSPPSREEIMATLLDHDLSETIYQEPFCSNPSDVPEKPREIGGRLLMVETRLANDLAEFEGDFSLEGLRLWKTAFSAMTQNPRPGSPLRSGQGVVNKGSSNSPKMVEDKKIVIMPCKCAPSRQLVQVWLQAKE
notes: REV3, human, residues 1871-2014 (holds RBM1 1875-1896 and RBM2 1991-2012); Named without a tag; the methods say in general that tags were cleaved; source: E. coli LOBSTR, purified; not shown: hexahistidine-MBP or GST, N-terminal, cleaved
binding result (REV7^WT): binds

B2: SHLD3^1–62 (domain or fragment, human, UniProt Q6ZNX1 1-62, looked up)
chain: MTTEVILHYRPCESDPTQLPKIAEKAIQDFPTRPLSRFIPWFPYDGSKLPLRPKRSPPVISE
notes: the methods say in general that tags were cleaved; also called SHLD3^RBM; source: E. coli LOBSTR, purified; not shown: hexahistidine-MBP or GST, N-terminal, cleaved
Kd (REV7^R124A [1]): ~67 nM | binding result (REV7^R124A [2]): binds | Kd (REV7^WT): ~50 nM

B3: MBP-SHLD2^1–60 (domain or fragment, human, UniProt Q86V20-2 1-60, looked up)
chain: MSGGSQVHIFWGAPIAPLKITVSEDTASLMSVADPWKKIQLLYSQHSLYLKDEKQHKNLE
notes: SHLD2, human, N-terminal residues 1-60; source: E. coli LOBSTR, purified; not shown: hexahistidine-MBP, N-terminal, kept
binding result [3]: binds | binding result (preformed REV7^ΔN-SHLD3): binds

TTAGGGTTAGGG (ssDNA) [telomeric ssDNA]
Kd ([4]; label: 5(6)-FAM): 207 nM | binding result (SHLD3 CTD; label: 5(6)-FAM): binds

AGTGCCAGTGCC (ssDNA) [non-telomeric ssDNA]
binding result [5]: no binding | Kd ([4]; label: 5(6)-FAM): 137 nM | binding result (SHLD3 CTD; label: 5(6)-FAM): binds

B4: non-telomeric dsDNA (dsDNA)
DNA 1: AGTGCCAGTGCC
DNA 2: GGCACTGGCACT
Kd [4, 7]: 166 nM | binding result (SHLD3 CTD; [7]): binds

B5: dsTelo (dsDNA)
DNA 1: TTAGGGTTAGGG
DNA 2: CCCTAACCCTAA
Kd [4, 7]: 180 nM | binding result (SHLD3 CTD; [7]): binds

AAGGGGAGCGGGGGAGGATAATAGGAAGGGGAGCGGGGGAGGATAATAGG (ssDNA) [50 nt ssDNA]
binding result [6]: binds
